Several values for one entry are separate records, joined by “and”; a condition that tells them apart may be missing. Equal values may be shown once.
Molecular target: T1, Biotin Ang2 (R & D Systems) (UniProt O15123 19-496, biotinylated (sites not given))
T1 sequence (looked up): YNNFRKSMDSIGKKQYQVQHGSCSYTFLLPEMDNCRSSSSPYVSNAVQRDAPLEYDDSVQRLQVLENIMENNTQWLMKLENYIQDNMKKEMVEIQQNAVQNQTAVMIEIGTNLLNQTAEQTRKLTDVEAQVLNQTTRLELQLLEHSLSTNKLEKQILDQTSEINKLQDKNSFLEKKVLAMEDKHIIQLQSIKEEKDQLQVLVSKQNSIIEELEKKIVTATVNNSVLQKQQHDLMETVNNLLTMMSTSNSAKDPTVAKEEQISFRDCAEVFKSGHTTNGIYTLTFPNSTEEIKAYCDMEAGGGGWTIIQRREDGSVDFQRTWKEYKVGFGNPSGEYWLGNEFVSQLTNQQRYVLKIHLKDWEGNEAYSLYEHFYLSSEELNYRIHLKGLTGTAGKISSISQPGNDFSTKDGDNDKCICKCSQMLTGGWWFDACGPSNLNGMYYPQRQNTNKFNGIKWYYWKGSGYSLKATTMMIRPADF
Assay: competition ELISA: Tie-2 Fc coated on the plate, antibody varied, blocked ligand binding is Biotin Ang2 to Tie-2 Fc, streptavidin HRP, O.D. 450 nm
Description: The following day, plates were blocked for 1 hour at room temperature with 200 μl of phosphate buffered saline (PBS) (Invitrogen, Carlsbad, Calif.) containing 0.5% bovine serum albumin (BSA) (Sigma, St. Louis, Mo.) and 0.1% Tween-20 (Sigma, St. Louis, Mo.). Plates were washed 3 times with wash buffer (PBS containing 0.05% Tween-20). […] Plates were washed 3 times with wash buffer. Following the wash, 100 ul of 1:5000 streptavidin HRP (Pierce, Rockford, Ill.) dilution in wash buffer were added and incubated for 1 hour at room temperature. Plates were washed 3 times with wash buffer. Plates were developed by adding 100 μl of TMB peroxidase substrate (KPL, Gaithersburg, Md.) for 5 minutes. The reaction was stopped by adding 100 μl/well of 1M phosphoric acid. Optical densities were measured at 450 nm with a microplate reader (Molecular Devices, Sunnyvale, Calif.).

B1: Ang-2 antibody 3.19.3 (antibody, V domains shown)
VH: QVQLVESGGGVVQPGRSLRLSCAASGFTFTNYGMHWGRQAPGKGLEWVAVISHDGNNKYYVDSVKGRFTISRDNSKNTLYLQMNSLRAEDTAVYYCAREGIDFWSGLNWFDPWGQGTLVTVSS
VL: EIVLTQSPGTLSLSPGERATLSCRASQSITGSYLAWYQQKPGQAPRLLICGASSWATGIPDRFSGSGSGTDFTLTISRLEPEDFAVYYCQQYSSSPITFGQGTRLEIKR
notes: Fully human monoclonal antibody; also called WT
  IC50 (read off the curve): ~0.1 µg/mL and ~0.2 µg/mL
